Biological target: the molecule itself
Test: crystal structure

B1: Mycobacterium tuberculosis isoprenyl diphosphate synthase Rv2173 (enzyme)
chain: LESTSLYKKAGSAAALFRFKKEPFTMAGAITDQLRRYLHGRRRAAAHMGSDYDGLIADLEDFVLGGGKRLRPLFAYWGWHAVASREPDPDVLLLFSALELLHAWALVHDDLIDRSATRRGRPTAQLRYAALHRDRDWRGSPDQFGMSAAILLGDLAQVWADDIVSKVCQSALAPDAQRRVHRVWADIRNEVLGGQYLDIVAEASAAESIESAMNVATLKTACYTVSRPLQLGTAAAADRSDVAAIFEHFGADLGVAFQLRDDVLGVFGDPAVTGKPSGDDLKSGKRTVLVAEAVELADRSDPLAAKLLRTSIGTRLTDAQVRELRTVIEAVGARAAAESRIAALTQRALATLASAPINATAKAGLSELAMMAANRSA
notes: also called tagged Rv2173; not shown: His6, N-terminal, kept
Which “stoichiometry N” value does the source give for B1 here?
Its value is 2.
